Our source for the stoichiometry N and Km values is article PMC10672034, “Characterization of a Type II L-Asparaginase from the Halotolerant Bacillus subtilis CH11” (Life, 2023).

Series [1] concerns the target L-ASNasaZP21 (N-terminally truncated type II L-asparaginase of Bacillus subtilis CH11) (Bacillus subtilis CH11) (UniProt O34482). In words: SEC; HiPrep 16/60 Sephacryl S-200 HR, 50 mM Tris-HCl, 100 mM NaCl, pH 8.5, 0.5 mL/min; molecular weight from a standard curve (Protein Standard Mix 15-600 kDa), semi-log graph.
Substrate in series [2]: NC(=O)C[C@H](N)C(=O)O
Description: Nessler ammonia assay, Lineweaver-Burk plot. Type of series: biochemical, Bacillus subtilis. To be noted: pH 9, 60 °C, 10 min, 2-14 mM substrate.

As for “L-ASNasaZP21 (N-terminally truncated type II L-asparaginase of Bacillus subtilis CH11) (from UniProt O34482 21-375) (enzyme)”, the stoichiometry N (usually the number of molecules, sites or subunits per partner or assembly) in series [1] is 4.

B1: L-ASNasaZP21 (type II L-asparaginase, ansZP21) (Bacillus subtilis subsp. subtilis str. 168; S21P) (protein)
chain: PHSPETKESPKEKAQTQKVSSASASEKKDLPNIRILATGGTIAGADQSKTSTTEYKAGVVGVESLIEAVPEMKDIANVSGEQIVNVGSTNIDNKILLKLAKRINHLLASDDVDGIVVTHGTDTLEETAYFLNLTVKSDKPVVIVGSMRPSTAISADGPSNLYNAVKVAGAPEAKGKGTLVVLNDRIASARYVTKTNTTTTDTFKSEEMGFVGTIADDIYFNNEITRKHTKDTDFSVSNLDELPQVDIIYGYQNDGSYLFDAAVKAGAKGIVFAGSGNGSLSDAAEKGADSAVKKGVTVVRSTRTGNGVVTPNQDYAEKDLLASNSLNPQKARMLLMLALTKTNDPQKIQAYFNEY
notes: signal peptide and Cys20 (first 60 bp) removed; E. coli BL21(DE3)pLysS; homotetramer 155 kDa; forward primer encodes …
On to B1, for which the Km (usually the substrate concentration at which the rate is half of its maximum) in series [2] is 4.75 mM.
